Experimental data reported in publication PMC10620092, “Structure and electromechanical coupling of a voltage-gated Na^+/H^+ exchanger” (Nature, 2023).

Biological target: the molecule itself
Experiment: cryo-EM structure; 3 mg/ml SLC9C1 in GDN detergent (50 mM Tris-HCl pH 7.5, 150 mM NaCl, 0.02% GDN); C2 symmetry, symmetry expansion and masked refinement for the VSDs

B1: Strongylocentrotus purpuratus (sea urchin) SLC9C1, full length, GFP-TwinStrep tag removed by TEV (natural protein, UniProt A3RL54 30-1325, looked up)
chain: SSGGSGHTPTTQATHADDHDLTTHNGTEEHDDGHDDGHDDLHAHAPKVIVFISGSCLFGAISRSLFKKLPIPYTVVLLILGAILGVVASNVPLVEEHTRDVAHMDPHVLLQIFLPVLIFESAFAMDVHTFMRSFSQVCILALFGLVVASVLTAVLAMNLFNYNWNFSEAMMFGAIMSATDPVAVVALLKDLGASKQLGTIIEGESLLNDGCAIVIFNVFMKMVFFPQLTSTVGQNVLYFLQVAVAGPLWGYAVAKVTVFFLSHIFNDALVEITITLAATYLTYYIGDIWLEVSGVLAVVVLGLIVNAEKTSISPEVEVFLHRFWEMLAYLANTLIFMMVGVVVTQKALVAVDKMDWFYLIILYLAITIIRGMVISLFSPILSRIGYGLTWRNAVIMTWGGLRGAVGLALALVVENLAGNDVIGSKFLFHTAGIVVLTLVINATTIQTLLRILGMSDISIPKRLAMAGAVRRIHEGQNRTLNMLKSDRFLADADWDIATAACEISDPYSALSDDENAPADELTLGERKSVCPGCKAMVPNEPSPREFADMMEEARLRMLKAEKISYWKQFEHGMLAREALRLLVQHAEVAADEKDQFILVDDLKKSWQIKGIYPWLKRKLEDLISEKKIAAIPMPKYKLGKLMYKICHHMAFEVTINIAIVLNIVPIIMEFVVQDKMASVSTMAAPGSTVSSEPSSLQKIEDALRISNYVFFVIYAIEAIVKILGLGRHYIVSHWNKFDAFILVVALVDIIIAETLLKGSITINLSSIKVVKLFRLLRGLRMLRLTKALIPKLILVVNGKINNQLSLGYDVGKGYIIGEEEVGKIIDRMVDNKKILRELKHISETGRLQVVKELGLLQREHPGIAVSVKTRQAIRTILNHSRETIHELQGAGLLDEMEAHKLELTVEIKMKRLMNAPSSIPPPPPENLLKNVSWLAGDMKLIDFIKARASLLHFDYGEVIVREGDESDGLFLIVSGLVKLYGKSAFLDHDNPPVTAGSEENEVFEDYLTVGNVIGEMGVLTKKPRNATVTCETTVQVYFITAEDMNIAIDTFTLYPSLEYRLWRVVAIRIATPLIMEQMAFQGWTQEKVKLHLERGYLVDLAESHFQFNIDATLEDVILINGTAYNAHTREEIRSPCLISRTVHKLTFQYTATEEPRLFVVRNAEYNGPILDGRLDVDSKRSLISITEISSNMCLKHAAELRQKNSKVMLSRKSSGAAAKEEEDCIPNTSDVEQAAGVSPSVPTKTTPKPKSFLPSLGLSMSKERVNGEAVEESPVKTKQGEETPETEEGAAPRVNV
notes: synthesised gene in pcDNA3.1(+); A TEV recognition site follows the protein; what is left of it after cleavage stays at the C terminus; also called sperm-specific Na+/H+ exchanger SLC9C1; SLC9C1(WT); source: for one sample further reconstituted into MSP1E2 nanodiscs with yeast polar lipids; not shown: eGFP, C-terminal, cleaved; TwinStrep, C-terminal, cleaved; His8, C-terminal, cleaved
- stoichiometry N: 2
